The source of these data is patent publication US20260028405A1 (ICAHN SCHOOL OF MEDICINE AT MOUNT SINAI, published 2026).

B1: biotinylated human CD64 protein (receptor, UniProt P12314 16-288, looked up)
chain: QVDTTKAVITLQPPWVSVFQEETVTLHCEVLHLPGSSSTQWFLNGTATQTSTPSYRITSASVNDSGEYRCQRGLSGRSDPIQLEIHRGWLLLQVSSRVFTEGEPLALRCHAWKDKLVYNVLYYRNGKAFKFFHWNSNLTILKTNISHNGTYHCSGMGKHRYTSAGISVTVKELFPAPVLNASVTSPLLEGNLVTLSCETKLLLQRPGLQLYFSFYMGSKTLRGRNTSSEYQILTARREDSGLYWCEAATEDGNVLKRSPELELQVLGLQLPTP
modifications: biotinylated
notes: also called human Fc receptor CD64
B2: chF9H4-DANA, chimeric F9H4 with hIgG1 CH2-CH3 carrying D265A N297A (antibody)
heavy: QVQLQQPGSELVRPGASVKLSCKASGYTFTSYWMHWVKQRHGQGLEWIGNIYPGSGSTNYDEKFKSKGTLTVDTSSSTAYMHLGSLTSEDSAVYYCTMRYGGYYGYYFDYWGQGTTLTVSSAKTTAPSVYPLAPVCGDTTGSSVTLGCLVKGYFPEPVTLTWNSGSLSSGVHTFPAVLQSDLYTLSSSVTVTSSTWPSQSITCNVAHPASSTKVDKKIEPRGPTIKPCPPCKCPAPELLGGPSVFLFPPKPKDTLMISRTPEVTCVVVAVSHEDPEVKFNWYVDGVEVHNAKTKPREEQYASTYRVVSVLTVLHQDWLNGKEYKCKVSNKALPAPIEKTISKAKGQPREPQVYTLPPSRDELTKNQVSLTCLVKGFYPSDIAVEWESNGQPENNYKTTPPVLDSDGSFFLYSKLTVDKSRWQQGNVFSCSVMHEALHNHYTQKSLSLSPGK
light: EIVLTQSPTTMAASPGEKITITCSTTSSISSNYLHWYQQKPGFSPKLLIYRTSNLASGVPARFSGSGSGTSYSLTIGTMEAEDVATYYCQQGSSIPLTFGAGTKLELKRADAAPTVSIFPPSSEQLTSGGASVVCFLNNFYPKDINVKWKIDGSERQNGVLNSWTDQDSKDSTYSMSSTLTLTKDEYERHNSYTCEATHKTSTSPIVKSFNRNEC
notes: also called chF8H4-DANA; F9H4-hIG1-DANA; copies: 2 + 2
B3: anti-CD16a antibody 3G8 (antibody)
chain 1: QVTLKESGPGILQPSQTLSLTCSFSGFSLRTSGMGVGWIRQPSGKGLEWLAHIWWDDDKRYNPALKSRLTISKDTSSNQVFLKIASVDTADTATYYCAQINPAWFAYWGQGTLVTVS
chain 2: DIVLTQSPASLAVSLGQRATISCKASQSVDFDGDSFMNWYQQKPGQPPKLLIYTTSNLESGIPARFSASGSGTDFTLNIHPVEEEDTATYYCQQSNEDPYTFGGGTKLELK
B4: anti-CD16a antibody F9H4 (antibody, V domains shown)
VH: QVQLQQPGSELVRPGASVKLSCKASGYTFTSYWMHWVKQRHGQGLEWIGNIYPGSGSTNYDEKFKSKGTLTVDTSSSTAYMHLGSLTSEDSAVYYCTMRYGGYYGYYFDYWGQGTTLTVSS
VL: EIVLTQSPTTMAASPGEKITITCSTTSSISSNYLHWYQQKPGFSPKLLIYRTSNLASGVPARFSGSGSGTSYSLTIGTMEAEDVATYYCQQGSSIPLTFGAGTKLELKR
notes: also called F9H14

The target in one experiment is T1, hIgG wild type.
T1 construct: it may be the same as hIgG1
Description: ELISA, immobilised antibody detected with biotinylated human CD64. On the procedure:
(§1) FIGS. 7A, 7B, and 7C illustrate the properties of chF9H4-DANA, a chimeric antibody in which the variable and the CH1 region of F9H4 is fused to the CH2 and CH3 regions of hIgG1 comprising a D265A N297A (DANA) mutation (labeled as “F9H4-hIG1-DANA” in FIGS. 7A, 7B, and 7C). FIG. 7A. The indicated antibodies were immobilized in ELISA plates and detected by biotinylated human CD64 protein, which was added in the indicated concentrations. Highest absorbance for hIgG wild type. FIG. 7B. ELISA for reactivity of antibodies against human CD16a. Highest absorbance for F9H4-hIG1-DANA. FIG. 7C. Inhibition of CD16a shedding assay with primary NK cells that were treated with 30 ng/mL PMA to induce CD16a shedding. Highest absorbance for F9H4-hIG1-DANA. Data represent three independent experiments (FIGS. 7A, 7B, and 7C) and mean+/−SD of triplicates even though the SD bars are so small that cannot be seen (FIG. 7C).
(In general: ELISA stands for enzyme-linked immunosorbent assay.)

Experiment [1] concerns the target T2, human CD16a protein (human, UniProt P08637 17-208, biotinylated in the bead assay (FIG. 4B, 4C)).
T2 construct: construct not described; also called biotinylated CD16a; FcγRIIIa
Description: ELISA on human CD16a.

Experiment [2] has as its target B1. Briefly: ELISA, immobilised antibody detected with biotinylated human CD64. On the procedure: as §1
Experiment [3] has as its target human CD16a on cells (primary NK cells; engineered reporter cells) (human, UniProt P08637 17-254). Briefly: cell-based or functional assay.
Experiment [4] has as its target T2, human CD16a protein. Description: ELISA on human CD16a protein.
Experiment [5] deals with T3, recombinant CD16a D2 domain (UniProt P08637 107-208, limits assumed).
T3 construct: domain: D2
Briefly: ELISA, immobilised CD16a D2 domain [panel D2]. On the procedure:
FIGS. 4A, 4B, 4C, 4D, 4E, and 4F illustrate the characterization of F9H4. FIG. 4A. An ELISA was performed with immobilized F9H4 or the positive controls, respectively. For detection, biotinylated antibodies against the indicated subclasses of murine IgG were used. From left to right: Anti-mIgG1, anti-mIgG2a, anti-mIgG2b, anti-mIgG3. FIG. 4B. Validation of a bead assay to assess CD16a binding to hIgG1. […] Two left peaks (overlapping): uncoated and DANA mutant. Right peak: hIgG1. FIG. 4C. Bead assay for CD16a binding to hIgG1. hIgG1-coated beads were incubated with 1 μg/mL biotinylated CD16a plus the indicated antibodies, followed by incubation with PE-labelled streptavidin and analysis by flow cytometry. Peaks from left to right: 30, 10, 3, and 1 μg/mL. FIG. 4D. Jukart cells were engineered to express human CD16a and luciferase in response to CD16a engagement. Cells were treated overnight with the indicated antibodies, followed by addition of luciferin and analyses in plate reader. […] Data represent two (FIG. 4D) or three (FIGS. 4A, 4B, 4C, and 4F) independent experiments, are mean+/−SE of quadruplicates (FIG. 4 D), and were analyzed by non-linear regression (FIGS. 4D and 4F).
To shed light into the mechanism by which F9H4 inhibit the cleavage, the two immunoglobulin-like domains, D1 and D2 of CD16a were examined. […] It was determined by ELISA that F9H4 binds full length CD16a and D1, but not D2. […]

T2 sequence (P08637 17-208 limits assumed): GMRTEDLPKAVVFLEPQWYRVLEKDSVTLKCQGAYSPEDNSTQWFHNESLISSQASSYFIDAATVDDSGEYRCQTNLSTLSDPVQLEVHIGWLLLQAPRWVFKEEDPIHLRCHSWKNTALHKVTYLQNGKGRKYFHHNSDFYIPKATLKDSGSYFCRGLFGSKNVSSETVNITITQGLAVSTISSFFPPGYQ
T3 sequence (P08637 107-208 limits assumed): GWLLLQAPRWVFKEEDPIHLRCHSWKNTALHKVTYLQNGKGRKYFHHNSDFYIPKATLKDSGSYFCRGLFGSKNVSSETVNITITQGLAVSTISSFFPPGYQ
Sequence of human CD16a on cells (primary NK cells; engineered reporter cells) (P08637 17-254, change not shown): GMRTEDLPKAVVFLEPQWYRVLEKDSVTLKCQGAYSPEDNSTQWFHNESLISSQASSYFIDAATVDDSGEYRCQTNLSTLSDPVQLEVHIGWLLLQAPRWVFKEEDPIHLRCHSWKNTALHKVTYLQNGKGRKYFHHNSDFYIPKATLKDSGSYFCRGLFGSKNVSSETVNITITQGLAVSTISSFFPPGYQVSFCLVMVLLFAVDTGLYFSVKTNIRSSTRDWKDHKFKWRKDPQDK

On to B1, for which, in the experiment with hIgG wild type, the “EC50 (read off the curve)” value was roughly 0.006 µg/mL.

For B2, the “EC50 (read off the curve)” value in the experiment with human CD16a protein [1] was roughly 0.04 µg/mL. The binding result in experiment [2] is “no binding (tested: 1 µg/mL)”.

For the molecule B3, the “EC50 (read off the curve), luciferase reporter of CD16a engagement (RLU)” value in experiment [3] was roughly 0.1 µg/mL.

As to B4, in the experiment with human CD16a protein [4], the “EC50 (read off the curve)” value was roughly 0.001 µg/mL. For the same molecule, the binding result in experiment [5] is recorded as “no binding (tested: 10 µg/mL)”.

The term EC50 (read off the curve) denotes the midpoint of the concentration-response curve. The low end stands for greater potency, the high end for weaker potency.
